From publication PMC6459857

How the values were obtained:
Cdk2 [1] = target: Cdk2 (UniProt P24941); assay: single-molecule FRET, dyes at C54 and C93; conditions: reference: unphosphorylated p27-C54-93; sites Y88
Cdk2 [2] = target: Cdk2 (UniProt P24941); assay: single-molecule fluorescence anisotropy, BODIPY at C93; conditions: reference: unphosphorylated p27-C93; sites Y88

## p27Kip1 (p27) 1-198 (from UniProt P46527) pY88-p27-C54-93
Cdk2 [1]
  other: fraction in released minor state: weaker; reference 17

## p27Kip1 (p27) 1-198 (from UniProt P46527) pY88-p27-C93
Cdk2 [2]
  other: fraction in flexible state: weaker; reference 33
